Test results taken from US20090166224A1.

What was measured:
[1] = molecular target: ALPHA-2-HS-GLYCOPROTEIN (human) (UniProt P02765); assay: untreated sample on M-LAC column, displacer fraction, peak area of peptide …
[2] = molecular target: Alpha-1-acid-glycoprotein (human) (UniProt P02763); assay: as above
[3] = molecular target: Beta-2-glycoprotein (human) (UniProt P02749); assay: as above
[4] = molecular target: HAPTOGLOBIN-2 (human) (UniProt P00738); assay: as above
[5] = molecular target: SERO… (human) (UniProt P02787); assay: as above
[6] = molecular target: Alpha-1-acid-glycoprotein in neuraminidase-treated serum (human) (UniProt P02763); assay: neuraminidized sample on M-LAC column, displacer fraction, peak area of peptide …
Alpha-1-acid-glycoprotein in neuraminidase-treated serum (human), sequence (P02763 19-201 limits assumed): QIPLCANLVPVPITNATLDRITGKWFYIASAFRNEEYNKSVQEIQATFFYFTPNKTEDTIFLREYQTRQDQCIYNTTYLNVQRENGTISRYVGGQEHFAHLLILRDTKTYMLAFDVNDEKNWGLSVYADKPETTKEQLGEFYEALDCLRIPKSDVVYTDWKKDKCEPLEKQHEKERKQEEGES

[7] = molecular target: Alpha-2HS-glycoprotein in neuraminidase-treated serum (human) (UniProt P02765); assay: as above
Alpha-2HS-glycoprotein in neuraminidase-treated serum (human), sequence (P02765 19-300 limits assumed, chain 1 of 2): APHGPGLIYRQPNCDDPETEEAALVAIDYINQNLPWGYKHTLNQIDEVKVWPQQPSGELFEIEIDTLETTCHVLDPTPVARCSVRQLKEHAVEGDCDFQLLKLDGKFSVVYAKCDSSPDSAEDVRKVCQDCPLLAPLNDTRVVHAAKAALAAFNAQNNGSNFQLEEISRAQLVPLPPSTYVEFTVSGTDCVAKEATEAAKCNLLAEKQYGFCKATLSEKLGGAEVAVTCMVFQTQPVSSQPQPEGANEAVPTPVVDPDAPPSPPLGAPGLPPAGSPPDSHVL
Alpha-2HS-glycoprotein in neuraminidase-treated serum (human), sequence (P02765 341-367 limits assumed, chain 2 of 2): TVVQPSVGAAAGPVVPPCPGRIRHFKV

[8] = molecular target: Beta-2-glycoprotein in neuraminidase-treated serum (human) (UniProt P02749); assay: as above
Beta-2-glycoprotein in neuraminidase-treated serum (human), sequence (P02749 20-345 limits assumed): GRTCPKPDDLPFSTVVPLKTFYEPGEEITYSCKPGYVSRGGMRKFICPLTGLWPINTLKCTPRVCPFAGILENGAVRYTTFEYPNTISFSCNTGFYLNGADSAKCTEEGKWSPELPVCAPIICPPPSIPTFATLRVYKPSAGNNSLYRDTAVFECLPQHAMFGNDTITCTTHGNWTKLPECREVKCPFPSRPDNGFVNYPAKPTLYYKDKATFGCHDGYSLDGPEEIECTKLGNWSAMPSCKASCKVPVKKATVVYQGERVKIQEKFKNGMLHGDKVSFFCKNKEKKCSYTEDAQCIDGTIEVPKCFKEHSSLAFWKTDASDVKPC

[9] = molecular target: Haptoglobin in neuraminidase-treated serum (human) (UniProt P00738); assay: as above
Haptoglobin in neuraminidase-treated serum (human), sequence (P00738 19-406 limits assumed): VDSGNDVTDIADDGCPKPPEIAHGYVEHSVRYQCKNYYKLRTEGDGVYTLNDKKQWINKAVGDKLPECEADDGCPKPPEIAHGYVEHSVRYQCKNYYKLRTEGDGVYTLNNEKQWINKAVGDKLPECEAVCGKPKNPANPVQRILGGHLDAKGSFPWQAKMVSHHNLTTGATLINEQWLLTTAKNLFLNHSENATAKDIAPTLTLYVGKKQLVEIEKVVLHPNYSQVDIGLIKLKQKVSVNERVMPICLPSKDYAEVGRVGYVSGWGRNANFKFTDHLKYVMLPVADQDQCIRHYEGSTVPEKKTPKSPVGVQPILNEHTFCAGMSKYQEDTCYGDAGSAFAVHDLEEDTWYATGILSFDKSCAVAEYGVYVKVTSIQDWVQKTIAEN

[10] = molecular target: asialotransferrin (human) (UniProt P02787); assay: as above
[11] = molecular target: HAPTOGLOBIN-2 (human) (UniProt P00738); assay: human serum on M-LAC column, displacer fraction, LC-MS/MS; smaller rank = more abundant
[12] = molecular target: ALPHA-2-HS-GLYCOPROTEIN (human) (UniProt P02765); assay: human serum on M-LAC column, displacer fraction, extracted ion chromatogram of peptide …
[13] = molecular target: Alpha-1-acid-glycoprotein (human) (UniProt P02763); assay: as above
[14] = molecular target: Beta-2-glycoprotein (human) (UniProt P02749); assay: as above
[15] = molecular target: HAPTOGLOBIN-2 (human) (UniProt P00738); assay: as above
[16] = molecular target: SERO… (human) (UniProt P02787); assay: as above
[17] = molecular target: APOLIPOPROTEIN A-I (human) (UniProt P02647); assay: as above
UniProt P02647, sequence (P02647 25-267 limits assumed): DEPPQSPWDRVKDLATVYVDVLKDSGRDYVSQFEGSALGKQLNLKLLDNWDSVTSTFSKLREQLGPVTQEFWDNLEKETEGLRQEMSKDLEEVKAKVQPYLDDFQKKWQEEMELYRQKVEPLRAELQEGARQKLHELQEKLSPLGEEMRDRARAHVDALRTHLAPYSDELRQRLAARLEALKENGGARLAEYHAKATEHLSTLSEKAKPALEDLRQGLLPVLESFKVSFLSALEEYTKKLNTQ

[18] = molecular target: CERULOPLASMIN (human) (UniProt P00450); assay: as above
UniProt P00450, sequence (P00450 20-1065 limits assumed): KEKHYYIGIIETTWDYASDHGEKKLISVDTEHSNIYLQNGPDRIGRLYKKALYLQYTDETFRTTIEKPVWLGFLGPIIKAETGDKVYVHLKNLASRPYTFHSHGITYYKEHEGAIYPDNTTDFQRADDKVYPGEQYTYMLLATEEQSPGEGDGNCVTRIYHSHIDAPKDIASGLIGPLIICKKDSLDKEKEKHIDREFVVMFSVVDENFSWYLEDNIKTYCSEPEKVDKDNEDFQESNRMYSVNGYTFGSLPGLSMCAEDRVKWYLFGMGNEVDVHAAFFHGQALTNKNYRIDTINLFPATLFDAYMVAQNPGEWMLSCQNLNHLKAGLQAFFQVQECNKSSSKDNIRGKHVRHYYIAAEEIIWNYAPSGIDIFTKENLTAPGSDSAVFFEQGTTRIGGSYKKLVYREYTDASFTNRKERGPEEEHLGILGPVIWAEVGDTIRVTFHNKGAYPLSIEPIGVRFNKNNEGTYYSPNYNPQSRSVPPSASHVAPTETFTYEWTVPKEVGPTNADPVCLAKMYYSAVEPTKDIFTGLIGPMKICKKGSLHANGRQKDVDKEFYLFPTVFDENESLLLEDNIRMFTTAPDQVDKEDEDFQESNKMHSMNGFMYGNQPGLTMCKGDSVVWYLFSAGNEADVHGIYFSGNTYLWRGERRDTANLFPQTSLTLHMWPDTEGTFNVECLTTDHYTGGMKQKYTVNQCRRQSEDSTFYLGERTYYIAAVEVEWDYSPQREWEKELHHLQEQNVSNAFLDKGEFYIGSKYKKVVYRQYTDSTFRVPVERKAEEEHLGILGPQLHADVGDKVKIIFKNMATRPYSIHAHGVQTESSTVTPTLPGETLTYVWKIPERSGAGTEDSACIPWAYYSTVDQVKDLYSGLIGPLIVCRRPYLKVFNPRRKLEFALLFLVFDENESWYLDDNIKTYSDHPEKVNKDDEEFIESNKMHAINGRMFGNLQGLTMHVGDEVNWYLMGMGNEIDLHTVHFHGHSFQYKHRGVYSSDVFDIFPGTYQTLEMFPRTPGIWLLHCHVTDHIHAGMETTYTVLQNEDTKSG

[19] = molecular target: Alpha-1-acid-glycoprotein in fucosidase-treated serum (human) (UniProt P02763); assay: fucosidase-treated serum on M-LAC column, displacer fraction, LC-MS/MS; smaller rank = more abundant
Alpha-1-acid-glycoprotein in fucosidase-treated serum (human), sequence (P02763 19-201 limits assumed): as the sequence (P02763 19-201 limits assumed) above

[20] = molecular target: Apolipoprotein A-I in fucosidase-treated serum (human) (UniProt P02647); assay: as above
Apolipoprotein A-I in fucosidase-treated serum (human), sequence (P02647 25-267 limits assumed): as the sequence (P02647 25-267 limits assumed) above

[21] = molecular target: Ceruloplasmin in fucosidase-treated serum (human) (UniProt P00450); assay: as above
Ceruloplasmin in fucosidase-treated serum (human), sequence (P00450 20-1065 limits assumed): as the sequence (P00450 20-1065 limits assumed) above

[22] = molecular target: Haptoglobin in fucosidase-treated serum (human) (UniProt P00738); assay: as above
Haptoglobin in fucosidase-treated serum (human), sequence (P00738 19-406 limits assumed): as the sequence (P00738 19-406 limits assumed) above

[23] = molecular target: Alpha-1-acid-glycoprotein in fucosidase-treated serum (human) (UniProt P02763); assay: fucosidase-treated serum on M-LAC column, displacer fraction, extracted ion chromatogram of peptide …
[24] = molecular target: Apolipoprotein A-I in fucosidase-treated serum (human) (UniProt P02647); assay: as above
[25] = molecular target: Ceruloplasmin in fucosidase-treated serum (human) (UniProt P00450); assay: as above
[26] = molecular target: Haptoglobin in fucosidase-treated serum (human) (UniProt P00738); assay: as above
[27] = molecular target: … ZONE PROTEIN (human) (UniProt P20742); assay: human serum on M-LAC column, displacer fraction, extracted ion chromatogram of peptide … (so in the source)
… ZONE PROTEIN (human), sequence (P20742 26-1482 limits assumed): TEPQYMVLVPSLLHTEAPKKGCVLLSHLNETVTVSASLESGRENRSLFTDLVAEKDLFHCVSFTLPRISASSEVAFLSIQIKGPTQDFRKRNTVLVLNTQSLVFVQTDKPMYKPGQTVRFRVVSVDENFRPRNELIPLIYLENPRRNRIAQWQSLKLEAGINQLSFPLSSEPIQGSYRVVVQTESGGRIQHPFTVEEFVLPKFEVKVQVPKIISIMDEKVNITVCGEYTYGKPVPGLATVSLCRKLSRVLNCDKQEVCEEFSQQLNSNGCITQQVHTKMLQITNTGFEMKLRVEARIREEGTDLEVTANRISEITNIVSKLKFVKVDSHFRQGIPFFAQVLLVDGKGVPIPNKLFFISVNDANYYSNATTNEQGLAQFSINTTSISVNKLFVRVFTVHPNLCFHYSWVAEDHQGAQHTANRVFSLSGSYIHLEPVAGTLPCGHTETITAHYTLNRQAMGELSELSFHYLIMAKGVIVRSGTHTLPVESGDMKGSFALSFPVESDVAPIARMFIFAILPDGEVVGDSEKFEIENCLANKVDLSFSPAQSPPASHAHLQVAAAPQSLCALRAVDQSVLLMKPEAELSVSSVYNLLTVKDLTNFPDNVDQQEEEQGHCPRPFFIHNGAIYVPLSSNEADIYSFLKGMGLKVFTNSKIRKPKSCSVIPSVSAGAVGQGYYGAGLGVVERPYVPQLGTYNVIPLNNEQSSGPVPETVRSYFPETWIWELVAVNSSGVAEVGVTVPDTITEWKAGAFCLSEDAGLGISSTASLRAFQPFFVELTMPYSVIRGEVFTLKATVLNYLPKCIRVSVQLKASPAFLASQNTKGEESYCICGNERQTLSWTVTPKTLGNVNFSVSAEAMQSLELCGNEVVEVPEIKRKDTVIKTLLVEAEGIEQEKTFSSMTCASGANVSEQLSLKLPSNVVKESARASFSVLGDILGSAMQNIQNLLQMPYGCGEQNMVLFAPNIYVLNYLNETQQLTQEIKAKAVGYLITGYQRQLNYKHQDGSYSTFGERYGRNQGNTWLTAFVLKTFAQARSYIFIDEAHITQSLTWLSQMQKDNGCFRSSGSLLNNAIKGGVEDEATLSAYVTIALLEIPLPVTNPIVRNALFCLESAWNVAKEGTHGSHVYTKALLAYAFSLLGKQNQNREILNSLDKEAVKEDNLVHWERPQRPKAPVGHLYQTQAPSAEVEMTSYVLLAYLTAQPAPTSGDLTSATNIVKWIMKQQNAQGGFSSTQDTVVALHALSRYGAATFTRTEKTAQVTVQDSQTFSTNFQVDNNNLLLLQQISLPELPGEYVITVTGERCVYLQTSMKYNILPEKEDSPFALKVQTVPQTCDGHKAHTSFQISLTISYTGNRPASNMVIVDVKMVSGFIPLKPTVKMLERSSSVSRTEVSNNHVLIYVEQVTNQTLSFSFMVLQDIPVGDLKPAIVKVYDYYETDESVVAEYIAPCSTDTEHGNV

[28] = molecular target: Alpha-1-acid-glycoprotein in neuraminidase-treated serum (human) (UniProt P02763); assay: neuraminidase-treated serum on M-LAC column, displacer fraction, LC-MS/MS; smaller rank = more abundant
[29] = molecular target: Haptoglobin in neuraminidase-treated serum (human) (UniProt P00738); assay: as above
[30] = molecular target: Alpha-1-acid-glycoprotein in neuraminidase-treated serum (human) (UniProt P02763); assay: neuraminidase-treated serum on M-LAC column, displacer fraction, extracted ion chromatogram of peptide …
[31] = molecular target: Alpha-2HS-glycoprotein in neuraminidase-treated serum (human) (UniProt P02765); assay: as above
[32] = molecular target: Beta-2-glycoprotein in neuraminidase-treated serum (human) (UniProt P02749); assay: as above
[33] = molecular target: Haptoglobin in neuraminidase-treated serum (human) (UniProt P00738); assay: as above
[34] = molecular target: HAPTOGLOBIN-2 (human) (UniProt P00738); assay: human serum on Con A/WGA/Jacalin column, lectin-specific displacer fraction, LC-MS/MS; grade = SEQUEST rank group (+ = ranks 1-5, ++++ = 16-20)

UniProt P02765, sequence (P02765 19-300 limits assumed, chain 1 of 2): as the sequence (P02765 19-300 limits assumed, chain 1 of 2) above
Alpha-1-acid-glycoprotein (human), sequence (P02763 19-201 limits assumed): as the sequence (P02763 19-201 limits assumed) above
Beta-2-glycoprotein (human), sequence (P02749 20-345 limits assumed): as the sequence (P02749 20-345 limits assumed) above
HAPTOGLOBIN-2 (human), sequence (P00738 19-406 limits assumed): as the sequence (P00738 19-406 limits assumed) above

Question: “Jacalin lectin, agarose-bound (from UniProt P18670 1-133; P18671 1-20)” was tested. Which peptide peak area in displacer fraction [1] did it give?
Answer: 4

Question: And the peptide peak area in displacer fraction [2]?
Answer: 9.7

Question: And the peptide peak area in displacer fraction [3]?
Answer: 2.6

Question: And the peptide peak area in displacer fraction [4]?
Answer: 10.1

Question: What about the peptide peak area in displacer fraction [5] of the same substance?
Answer: 20

Question: And the peptide peak area in displacer fraction [6]?
Answer: 12.3

Question: What about the peptide peak area in displacer fraction [7] of the same substance?
Answer: 7.4

Question: And the peptide peak area in displacer fraction [8]?
Answer: 3.8

Question: What about the peptide peak area in displacer fraction [9] of the same substance?
Answer: 12.6

Question: And the peptide peak area in displacer fraction [10]?
Answer: 28

Question: What about the SEQUEST rank in displacer fraction [11] of the same substance?
Answer: 9

Question: What about the peptide peak area in displacer fraction [12] of the same substance?
Answer: 4e+06 counts

Question: What about the peptide peak area in displacer fraction [13] of the same substance?
Answer: 9.7e+06 counts

Question: What about the peptide peak area in displacer fraction [14] of the same substance?
Answer: 2.6e+06 counts

Question: And the peptide peak area in displacer fraction [15]?
Answer: 1e+07 counts

Question: And the peptide peak area in displacer fraction ([16]; peptide at M/Z 530.2)?
Answer: 1.9e+07 counts

Question: And the peptide peak area in displacer fraction ([16]; peptide at M/Z 790.1)?
Answer: 7e+06 counts

Question: What about the peptide peak area in displacer fraction [17] of the same substance?
Answer: 4e+07 counts

Question: What about the peptide peak area in displacer fraction [18] of the same substance?
Answer: 2e+06 counts

Question: What about the SEQUEST rank in displacer fraction [19] of the same substance?
Answer: 19

Question: And the SEQUEST rank in displacer fraction [20]?
Answer: 5

Question: And the SEQUEST rank in displacer fraction [21]?
Answer: 6

Question: What about the SEQUEST rank in displacer fraction [22] of the same substance?
Answer: 7

Question: What about the peptide peak area in displacer fraction [23] of the same substance?
Answer: 1.7e+07 counts

Question: And the peptide peak area in displacer fraction [24]?
Answer: 4.3e+07 counts

Question: What about the peptide peak area in displacer fraction [25] of the same substance?
Answer: 6.2e+06 counts

Question: What about the peptide peak area in displacer fraction [26] of the same substance?
Answer: 2.2e+07 counts

Question: And the peptide peak area in displacer fraction [27]?
Answer: 0 counts

Question: What about the SEQUEST rank in displacer fraction [28] of the same substance?
Answer: 27

Question: What about the SEQUEST rank in displacer fraction [29] of the same substance?
Answer: 9

Question: And the peptide peak area in displacer fraction [30]?
Answer: 1.2e+07 counts

Question: And the peptide peak area in displacer fraction [31]?
Answer: 7.4e+06 counts

Question: And the peptide peak area in displacer fraction [32]?
Answer: 3.8e+06 counts

Question: What about the peptide peak area in displacer fraction [33] of the same substance?
Answer: 1.3e+07 counts

Question: And the SEQUEST ranking (relative abundance in the Jacalin displacement fraction) [34]?
Answer: 11 to 15 rank

Question: Which peptide peak area in displacer fraction [1] does the source give for “Concanavalin A (Con A), agarose-bound (from UniProt P02866 30-281)” here?
Answer: 2.6

Question: And the peptide peak area in displacer fraction [2]?
Answer: 9.2

Question: And the peptide peak area in displacer fraction [3]?
Answer: 3.5

Question: What about the peptide peak area in displacer fraction [4] of the same substance?
Answer: 39.3

Question: And the peptide peak area in displacer fraction [5]?
Answer: 23

Question: What about the peptide peak area in displacer fraction [6] of the same substance?
Answer: 10.7

Question: And the peptide peak area in displacer fraction [7]?
Answer: 2.6

Question: And the peptide peak area in displacer fraction [8]?
Answer: 8.4

Question: What about the peptide peak area in displacer fraction [9] of the same substance?
Answer: 46.9

Question: And the peptide peak area in displacer fraction [10]?
Answer: 36

Question: What about the SEQUEST rank in displacer fraction [11] of the same substance?
Answer: 7

Question: And the peptide peak area in displacer fraction [12]?
Answer: 2.6e+06 counts

Question: What about the peptide peak area in displacer fraction [13] of the same substance?
Answer: 9.2e+06 counts

Question: What about the peptide peak area in displacer fraction [14] of the same substance?
Answer: 3.5e+06 counts

Question: What about the peptide peak area in displacer fraction [15] of the same substance?
Answer: 3.9e+07 counts

Question: And the peptide peak area in displacer fraction ([16]; peptide at M/Z 530.2)?
Answer: 2e+07 counts

Question: And the peptide peak area in displacer fraction ([16]; peptide at M/Z 790.1)?
Answer: 7.8e+06 counts

Question: And the peptide peak area in displacer fraction [17]?
Answer: 1.2e+07 counts

Question: And the peptide peak area in displacer fraction [18]?
Answer: 7.8e+06 counts

Question: And the SEQUEST rank in displacer fraction [19]?
Answer: 38

Question: What about the SEQUEST rank in displacer fraction [20] of the same substance?
Answer: 12

Question: What about the SEQUEST rank in displacer fraction [21] of the same substance?
Answer: 8

Question: And the SEQUEST rank in displacer fraction [22]?
Answer: 5

Question: What about the peptide peak area in displacer fraction [23] of the same substance?
Answer: 1e+07 counts

Question: What about the peptide peak area in displacer fraction [24] of the same substance?
Answer: 1.2e+07 counts

Question: What about the peptide peak area in displacer fraction [25] of the same substance?
Answer: 9.8e+06 counts

Question: What about the peptide peak area in displacer fraction [26] of the same substance?
Answer: 5.1e+07 counts

Question: What about the peptide peak area in displacer fraction [27] of the same substance?
Answer: 6.6e+06 counts

Question: And the SEQUEST rank in displacer fraction [28]?
Answer: 96

Question: What about the SEQUEST rank in displacer fraction [29] of the same substance?
Answer: 7

Question: And the peptide peak area in displacer fraction [30]?
Answer: 1.1e+07 counts

Question: What about the peptide peak area in displacer fraction [31] of the same substance?
Answer: 2.6e+06 counts

Question: And the peptide peak area in displacer fraction [32]?
Answer: 8.4e+06 counts

Question: And the peptide peak area in displacer fraction [33]?
Answer: 4.7e+07 counts

Question: What about the SEQUEST ranking (relative abundance in the Con A displacement fraction) [34] of the same substance?
Answer: 6 to 10 rank

Question: Which peptide peak area in displacer fraction [1] does the source give for “wheat germ agglutinin (WGA), agarose-bound (from UniProt P10968 27-197)” here?
Answer: 1.7

Question: What about the peptide peak area in displacer fraction [2] of the same substance?
Answer: 129

Question: And the peptide peak area in displacer fraction [3]?
Answer: 1.8

Question: And the peptide peak area in displacer fraction [4]?
Answer: 236

Question: What about the peptide peak area in displacer fraction [5] of the same substance?
Answer: 8.1

Question: And the peptide peak area in displacer fraction [6]?
Answer: 0

Question: And the peptide peak area in displacer fraction [7]?
Answer: 0.9

Question: And the peptide peak area in displacer fraction [8]?
Answer: 0

Question: What about the peptide peak area in displacer fraction [9] of the same substance?
Answer: 163

Question: And the peptide peak area in displacer fraction [10]?
Answer: 1.6

Question: What about the SEQUEST rank in displacer fraction [11] of the same substance?
Answer: 4

Question: What about the peptide peak area in displacer fraction [12] of the same substance?
Answer: 1.7e+06 counts

Question: And the peptide peak area in displacer fraction [13]?
Answer: 1.29e+08 counts

Question: And the peptide peak area in displacer fraction [14]?
Answer: 1.8e+06 counts

Question: And the peptide peak area in displacer fraction [15]?
Answer: 2.36e+08 counts

Question: And the peptide peak area in displacer fraction ([16]; peptide at M/Z 530.2)?
Answer: 7.7e+06 counts

Question: What about the peptide peak area in displacer fraction ([16]; peptide at M/Z 790.1) of the same substance?
Answer: 5e+06 counts

Question: And the peptide peak area in displacer fraction [17]?
Answer: 6e+07 counts

Question: And the peptide peak area in displacer fraction [18]?
Answer: 9.1e+06 counts

Question: What about the SEQUEST rank in displacer fraction [19] of the same substance?
Answer: 9

Question: And the SEQUEST rank in displacer fraction [20]?
Answer: 24

Question: And the SEQUEST rank in displacer fraction [21]?
Answer: 28

Question: And the SEQUEST rank in displacer fraction [22]?
Answer: 2

Question: What about the peptide peak area in displacer fraction [23] of the same substance?
Answer: 5e+07 counts

Question: And the peptide peak area in displacer fraction [24]?
Answer: 1.6e+07 counts

Question: And the peptide peak area in displacer fraction [25]?
Answer: 1.1e+07 counts

Question: What about the peptide peak area in displacer fraction [26] of the same substance?
Answer: 8.2e+07 counts

Question: And the peptide peak area in displacer fraction [27]?
Answer: 1.1e+07 counts

Question: And the SEQUEST rank in displacer fraction [28]?
Answer: 23

Question: And the SEQUEST rank in displacer fraction [29]?
Answer: 2

Question: And the peptide peak area in displacer fraction [30]?
Answer: 0 counts

Question: What about the peptide peak area in displacer fraction [31] of the same substance?
Answer: 900000 counts

Question: And the peptide peak area in displacer fraction [32]?
Answer: 0 counts

Question: And the peptide peak area in displacer fraction [33]?
Answer: 1.63e+08 counts

Question: And the SEQUEST ranking (relative abundance in the WGA displacement fraction) [34]?
Answer: 1 to 5 rank
